From publication PMC10980799, “The transcription of the main gene associated with Treacher–Collins syndrome (TCOF1) is regulated by G-quadruplexes and cellular nucleic acid binding protein (CNBP)” come the findings set out here.

For series [1], the target named is T1, CNBP (Homo sapiens, UniProt P62633 1-177). Kind of series: EMSA; 100 mM K+; apparent Kd, SEM, n=3; EMSA: 20 mM HEPES pH 8.0, 10 mM MgCl2, 1 mM EDTA, 0.5 ug/ul heparin, 1 mM DTT, 1 ug/ul BSA, 10% glycerol, 100 mM KCl or LiCl, probe 0.75 uM, 30 min at 37 C; CNBP diluted in 50 mM Tris-HCl pH 7.5, 300 mM NaCl, 1 mM DTT, 5 mM imidazole, 0.1 mM ZnCl2. The settings on record: protein: recombinant, tags: tag-free (from pET-32a-TEV-CNBP, tag removed), label: none (SYBR Gold stain).

Series [2] has as its target T1, CNBP. Kind of series: EMSA; 100 mM Li+; apparent Kd, SEM, n=3; EMSA: 20 mM HEPES pH 8.0, 10 mM MgCl2, 1 mM EDTA, 0.5 ug/ul heparin, 1 mM DTT, 1 ug/ul BSA, 10% glycerol, 100 mM KCl or LiCl, probe 0.75 uM, 30 min at 37 C; CNBP diluted in 50 mM Tris-HCl pH 7.5, 300 mM NaCl, 1 mM DTT, 5 mM imidazole, 0.1 mM ZnCl2. The conditions noted are these: protein: recombinant; tags: tag-free (from pET-32a-TEV-CNBP, tag removed); label: none (SYBR Gold stain); single strand, unfolded.

T1 sequence (P62633 whole entry): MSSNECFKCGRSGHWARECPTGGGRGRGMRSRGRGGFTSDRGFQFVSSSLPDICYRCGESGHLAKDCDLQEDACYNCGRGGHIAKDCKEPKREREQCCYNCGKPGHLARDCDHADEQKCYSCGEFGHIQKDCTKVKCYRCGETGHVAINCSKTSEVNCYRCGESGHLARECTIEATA

GTGTATGTGGGGGGGGGGGGCGGGTGGTAG (structured_DNA) [Hs2160 folded as G4 (K+)]: the Kd in the series with CNBP [1] (parallel G4) is 431 ± 120 nM.

For the molecule TGGGGTGGGGTGAGGTGGGGAAGAGGGAAC (ssDNA) [Hs791 unfolded (Li+)], the Kd with CNBP [2] came to 199 ± 55 nM.

For TGCTGGTGGTCATGGGGGAGTGGAGAGCAT (structured_DNA) [Dr2393 folded as G4 (K+)], the Kd in the series with CNBP [1] (G4) came out at 331 ± 80 nM.

Regarding TGCTGGTGGTCATGGGGGAGTGGAGAGCAT (ssDNA) [Dr2393 unfolded (Li+)], the Kd with CNBP [2] amounted to 257 ± 70 nM.

As to TGGGGTGGGGTGAGGTGGGGAAGAGGGAAC (structured_DNA) [Hs791 folded as G4 (K+)], the Kd with CNBP [1] (parallel G4) amounted to 271 ± 70 nM.

In the case of GTGTATGTGGGGGGGGGGGGCGGGTGGTAG (ssDNA) [Hs2160 unfolded (Li+)], the Kd in the series with CNBP [2] was 287 ± 100 nM.
